According to IntAct's records for PubMed 16292983:

B1: Ankyrin-2 (Homo sapiens), Q01484-2 (parent)
chain: MMNEDAAQKSDSGEKFNGSSQRRKRPKKSDSNASFLRAARAGNLDKVVEYLKGGIDINTCNQNGLNALHLAAKEGHVGLVQELLGRGSSVDSATKKGNTALHIASLAGQAEVVKVLVKEGANINAQSQNGFTPLYMAAQENHIDVVKYLLENGANQSTATEDGFTPLAVALQQGHNQAVAILLENDTKGKVRLPALHIAARKDDTKSAALLLQNDHNADVQSKMMVNRTTESGFTPLHIAAHYGNVNVATLLLNRGAAVDFTARNGITPLHVASKRGNTNMVKLLLDRGGQIDAKTRDGLTPLHCAARSGHDQVVELLLERGAPLLARTKNGLSPLHMAAQGDHVECVKHLLQHKAPVDDVTLDYLTALHVAAHCGHYRVTKLLLDKRANPNARALNGFTPLHIACKKNRIKVMELLVKYGASIQAITESGLTPIHVAAFMGHLNIVLLLLQNGASPDVTNIRGETALHMAARAGQVEVVRCLLRNGALVDARAREEQTPLHIASRLGKTEIVQLLLQHMAHPDAATTNGYTPLHISAREGQVDVASVLLEAGAAHSLATKKGFTPLHVAAKYGSLDVAKLLLQRRAAADSAGKNGLTPLHVAAHYDNQKVALLLLEKGASPHATAKNGYTPLHIAAKKNQMQIASTLLNYGAETNIVTKQGVTPLHLASQEGHTDMVTLLLDKGANIHMSTKSGLTSLHLAAQEDKVNVADILTKHGADQDAHTKLGYTPLIVACHYGNVKMVNFLLKQGANVNAKTKNGYTPLHQAAQQGHTHIINVLLQHGAKPNATTANGNTALAIAKRLGYISVVDTLKVVTEEVTTTTTTITEKHKLNVPETMTEVLDVSDEEGDDTMTGDGGEYLRPEDLKELGDDSLPSSQFLDGMNYLRYSLEGGRSDSLRSFSSDRSHTLSHASYLRDSAVMDDSVVIPSHQVSTLAKEAERNSYRLSWGTENLDNVALSSSPIHSGFLVSFMVDARGGAMRGCRHNGLRIIIPPRKCTAPTRVTCRLVKRHRLATMPPMVEGEGLASRLIEVGPSGAQFLGKLHLPTAPPPLNEGESLVSRILQLGPPGTKFLGPVIVEIPHFAALRGKERELVVLRSENGDSWKEHFCDYTEDELNEILNGMDEVLDSPEDLEKKRICRIITRDFPQYFAVVSRIKQDSNLIGPEGGVLSSTVVPQVQAVFPEGALTKRIRVGLQAQPMHSELVKKILGNKATFSPIVTLEPRRRKFHKPITMTIPVPKASSDVMLNGFGGDAPTLRLLCSITGGTTPAQWEDITGTTPLTFVNECVSFTTNVSARFWLIDCRQIQESVTFASQVYREIICVPYMAKFVVFAKSHDPIEARLRCFCMTDDKVDKTLEQQENFAEVARSRDVEVLEGKPIYVDCFGNLVPLTKSGQHHIFSFFAFKENRLPLFVKVRDTTQEPCGRLSFMKEPKSTRGLVHQAICNLNITLPIYTKESESDQEQEEEIDMTSEKNPQDEQERIEERLAYIADHLGFSWTELARELDFTEEQIHQIRIENPNSLQDQSHALLKYWLERDGKHATDTNLVECLTKINRMDIVHLMETNTEPLQERISHSYAEIEQTITLDHSEGFSVLQEELCTAQHKQKEEQAVSKESETCDHPPIVSEEDISVGYSTFQDGVPKTEGDSSATALFPQTHKEQVQQDFSGKMQDLPEESSLEYQQEYFVTTPGTETSETQKAMIVPSSPSKTPEEVSTPAEEEKLYLQTPTSSERGGSPIIQEPEEPSEHREESSPRKTSLVIVESADNQPETCERLDEDAAFEKGDDMPEIPPETVTEEEYIDEHGHTVVKKVTRKIIRRYVSSEGTEKEEIMVQGMPQEPVNIEEGDGYSKVIKRVVLKSDTEQSEDNNE

Variants of: B1
Conditions: with nac1_human SLC8A1, P32418

Variant	effect of a mutation on the interaction
E1458G	disrupting interaction
